We go through five molecules from US20250276092A1 (Regeneron, published 2025).

For assay [1], the target named is T1, human CD40 expressed on cells (human, UniProt P25942 21-277). Description: cell-based or functional assay.
Assay [2] addresses T1, human CD40 expressed on cells. Description: cell-based or functional assay. The source holds these as a separate data set.
For assay [3], the target named is T2, human CD40 extracellular domain expressed with a C-terminal myc-myc-hexahistidine tag (human).
T2 construct: also called hCD40-MMH; hCD40-mmH
Description: ELISA, blocks 40 nM hCD40-mmH binding to coated 9His-hCD40L. How it is done: In the blocking assay, 9His-hCD40L was passively absorbed at a concentration of 5 μg/mL in PBS on a 96-well microtiter plate overnight at 4° C. […] In a separate 96-well microtiter plate, a fixed amount of 40 nM hCD40-mmH was pre-mixed with one of the following antibodies, at concentrations ranging from 977 pM to 1 μM in PBS+0.5% BSA: (1) anti-CD40×CD40 bispecific antibodies (REGN16431, REGN16432, REGN16634, and REGN16335); (2) parental anti-CD40 mAbs (bivalent antibodies comprising 2 fragment antigen-binding [Fab] arms identical to one of anti-CD40 Fab of anti-CD40×CD40 antibodies); (3) anti-CD40×Irrelevant antibodies (bivalent antibodies that incorporate one Fab arm identical to one of anti-CD40 Fab of anti-CD40×CD40 antibodies and another Fab arm specific to an irrelevant antigen); and (4) human IgG4 with Fc mutation isotype control antibodies (REGN7540 and REGN4513). The fixed concentration of hCD40-mmH was selected to be near the concentration (EC₅₀ value) that generated 50% of the maximal binding to the plate-adhered 9His-hCD40L. After one-hour incubation, the antibody-antigen complexes were transferred to the microtiter plate coated with 9His-hCD40L. After one hour incubation at room temperature, the plates were washed, and plate-bound hCD40-mmH protein was detected with horseradish peroxidase (HRP) conjugated goat anti-c-Myc antibody. The plates were then developed using TMB substrate solution (BD Biosciences) according to the manufacturer's recommended procedure and the absorbance at 450 nm (OD₄₅₀) was measured on a SpectraMax i3× plate reader.
Binding data were analyzed using a sigmoidal (four-parameter logistic) dose-response model with GraphPad Prism™ software. […] The percent blocking of tested antibodies at the highest tested concentration ([…]) was calculated based on the formula shown below: […]
Background: In an ELISA, binding on a coated surface is turned into a signal by an enzyme label.

Assay [4] has as its target T1, human CD40 expressed on cells. Description: cell-based or functional assay. This is another data set of the same source.
Assay [5] has the same target. Description: cell-based or functional assay. The source holds these as a separate data set.
For assay [6] the target is unchanged. The assay can be described thus: cell-based or functional assay. The source holds these as a separate data set.
Assay [7] shares this target. Description: cell-based or functional assay. This is another data set of the same source.
Assay [8] shares this target. The assay can be described thus: cell-based or functional assay. The source holds these as a separate data set.
Assay [9] has the same target. The assay can be described thus: cell-based or functional assay. The source holds these as a separate data set.
For assay [10] the target is unchanged. The assay can be described thus: cell-based or functional assay. This is another data set of the same source.

T2 sequence (chain, as listed by the source limits assumed): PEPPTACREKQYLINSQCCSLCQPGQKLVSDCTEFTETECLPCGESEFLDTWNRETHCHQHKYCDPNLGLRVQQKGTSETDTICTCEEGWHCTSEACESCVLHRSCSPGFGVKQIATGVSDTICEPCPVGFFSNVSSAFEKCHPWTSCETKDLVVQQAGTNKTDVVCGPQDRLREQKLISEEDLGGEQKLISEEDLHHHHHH
T1 sequence (P25942 21-277): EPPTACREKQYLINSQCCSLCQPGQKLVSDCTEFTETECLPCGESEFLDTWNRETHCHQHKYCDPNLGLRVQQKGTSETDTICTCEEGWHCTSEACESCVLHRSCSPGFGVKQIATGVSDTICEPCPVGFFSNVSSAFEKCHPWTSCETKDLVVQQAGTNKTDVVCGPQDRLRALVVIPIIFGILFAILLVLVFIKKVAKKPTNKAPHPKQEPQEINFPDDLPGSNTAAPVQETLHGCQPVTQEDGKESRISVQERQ

B1: REGN17288 (antibody, V domains shown)
VH: QLQLQESGPGLVRPSETLSLTCSVSGASMNTNNYYWGWIRQPPGKGLEWIGSGYYNGNTYYNPSLKSRVTISVDTSKNQFSLKLNSVTAADTAVYYCARQTPPRIIGSPNIWGQGTMVTVSS
VL: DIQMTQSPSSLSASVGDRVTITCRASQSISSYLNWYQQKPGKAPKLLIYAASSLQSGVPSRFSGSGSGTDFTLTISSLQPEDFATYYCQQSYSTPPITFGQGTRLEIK
In the case of B1, in assay [1], the “IC50, NFkB-luc Ramos, 500 pM hCD40L” value came to 4.07e-11 M; the “Max % activation, NFkB-luc Ramos, no ligand” value turned out to be 6%; the “Max % inhibition, NFkB-luc Ramos, 500 pM hCD40L” value (shortened to “Max % inhibition, NFkB-luc Ramos”) is 88%. Further, in assay [2], the “IC50, NFkB-luc THP-1, 10 nM hCD40L” value was determined as 0.334 nM; the “Max % activation, NFkB-luc THP-1, no ligand” value was 0%; the “Max % inhibition, NFkB-luc THP-1, 10 nM hCD40L” value (“Max % inhibition … 10 nM hCD40L” below) came out at 98%. Also, the “% Blocking at highest mAb concentration” value in assay [3] is 94%. Further, in assay [4], the “IC50, NFkB-luc Raji, 900 pM hCD40L” value turned out to be 4.28e-11 M; the “Max % activation, NFkB-luc Raji, no ligand” value came out at 14%; the “Max % inhibition, NFkB-luc Raji, 900 pM hCD40L” value (“Max % inhibition, NFkB-luc Raji” for short) was 90%.

B2: REGN17544 (antibody, V domains shown)
VH: EVQLVESGGGLVQPGGSLRLSCAASGFTFGSYGMAWVRQAPGKGLEWVSAISGSGDYTNYADSVKRRFTISRDNSKNTLYLQMSSLRAEDTAVYYCAKEKTGTTGYLYSGMDVWGQGTTVTVSS
VL: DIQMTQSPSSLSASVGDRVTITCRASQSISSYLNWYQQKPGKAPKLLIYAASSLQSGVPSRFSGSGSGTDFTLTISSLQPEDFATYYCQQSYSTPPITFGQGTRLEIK
In the case of B2, in assay [1], the “IC50, NFkB-luc Ramos, 500 pM hCD40L” value is 1.89e-10 M; the “Max % activation, NFkB-luc Ramos, no ligand” value amounted to 10%; the “Max % inhibition, NFkB-luc Ramos” value came out at 77%. Besides, in assay [2], the “IC50, NFkB-luc THP-1, 10 nM hCD40L” value turned out to be 1.13 nM; the “Max % activation, NFkB-luc THP-1, no ligand” value worked out at 4%; the “Max % inhibition … 10 nM hCD40L” value turned out to be 96%. Further, in [3], the “% Blocking at highest mAb concentration” value was found to be 91%. Besides, in [4], the “IC50, NFkB-luc Raji, 900 pM hCD40L” value stood at 1.35e-10 M; the “Max % activation, NFkB-luc Raji, no ligand” value came to 11%; the “Max % inhibition, NFkB-luc Raji” value turned out to be 81%.

B3: REGN17289 (antibody, V domains shown)
VH: EVQLVESGGGLVQPGGSLRLSCAASGFTFSSYAMNWVRQAPGKGLEWVSIISGTIGKTYYADSVKGRFTISRDNSKNTLYLQMNSLRGEDTAVYYCAKDTERDITGSPFDYWGQGTLVTVSS
VL: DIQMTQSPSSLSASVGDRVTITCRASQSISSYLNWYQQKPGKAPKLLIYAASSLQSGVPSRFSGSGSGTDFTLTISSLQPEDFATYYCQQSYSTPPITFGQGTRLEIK
Turning to B3, in [1], the “EC50 in the presence of CD40L (potentiation), NFkB-luc Ramos, 500 pM hCD40L” value came to 7.51e-12 M; the “Max % activation, NFkB-luc Ramos, no ligand” value amounted to 4%; the “Max % inhibition, NFkB-luc Ramos” value was -133%. In addition, in [2], the “EC50 in the presence of CD40L (potentiation), NFkB-luc THP-1, 10 nM hCD40L” value was 0.016 nM; the “Max % activation, NFkB-luc THP-1, no ligand” value is 1%; the “Max % inhibition … 10 nM hCD40L” value was -92%. In assay [4], the “IC50, NFkB-luc Raji, 900 pM hCD40L” value came to 2.72e-11 M; the “Max % activation, NFkB-luc Raji, no ligand” value was 10%; the “Max % inhibition, NFkB-luc Raji” value is 55%.

B4: REGN16334 (bispecific antibody, human IgG4 S228P, kappa)
heavy 1: QLQLQESGPGLVRPSETLSLTCSVSGASMNTNNYYWGWIRQPPGKGLEWIGSGYYNGNTYYNPSLKSRVTISVDTSKNQFSLKLNSVTAADTAVYYCARQTPPRIIGSPNIWGQGTMVTVSSASTKGPSVFPLAPCSRSTSESTAALGCLVKDYFPEPVTVSWNSGALTSGVHTFPAVLQSSGLYSLSSVVTVPSSSLGTKTYTCNVDHKPSNTKVDKRVESKYGPPCPPCPAPGGGGPSVFLFPPKPKDTLMISRTPEVTCVVVDVSQEDPEVQFNWYVDGVEVHNAKTKPREEQFNSTYRVVSVLTVLHQDWLNGKEYKCKVSNKGLPSSIEKTISKAKGQPREPQVYTLPPSQEEMTKNQVSLTCLVKGFYPSDIAVEWESNGQPENNYKTTPPVLDSDGSFFLYSRLTVDKSRWQEGNVFSCSVMHEALHNHYTQKSLSLSLGK
heavy 2: EVQLVESGGGLVQPGGSLRLSCAASGFTFGSYGMAWVRQAPGKGLEWVSAISGSGDYTNYADSVKRRFTISRDNSKNTLYLQMSSLRAEDTAVYYCAKEKTGTTGYLYSGMDVWGQGTTVTVSSASTKGPSVFPLAPCSRSTSESTAALGCLVKDYFPEPVTVSWNSGALTSGVHTFPAVLQSSGLYSLSSVVTVPSSSLGTKTYTCNVDHKPSNTKVDKRVESKYGPPCPPCPAPGGGGPSVFLFPPKPKDTLMISRTPEVTCVVVDVSQEDPEVQFNWYVDGVEVHNAKTKPREEQFNSTYRVVSVLTVLHQDWLNGKEYKCKVSNKGLPSSIEKTISKAKGQPREPQVYTLPPSQEEMTKNQVSLTCLVKGFYPSDIAVEWESNGQPENNYKTTPPVLDSDGSFFLYSRLTVDKSRWQEGNVFSCSVMHEALHNRFTQKSLSLSPGK
light: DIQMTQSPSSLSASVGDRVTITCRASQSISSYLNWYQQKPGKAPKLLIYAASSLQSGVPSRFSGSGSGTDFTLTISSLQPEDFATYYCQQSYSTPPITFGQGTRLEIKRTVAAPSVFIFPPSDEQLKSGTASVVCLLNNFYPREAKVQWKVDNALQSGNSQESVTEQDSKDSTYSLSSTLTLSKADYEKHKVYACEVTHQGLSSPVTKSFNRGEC
notes: also called REGN16634 [sic]
In the case of B4, in [5], the “% max blockade relative to no mAb, TNFa, assay #2, donor 1” value was found to be 62.8% and the “% max blockade relative to no mAb, TNFa, assay #2, donor 2” value is 51.1%. Moreover, in assay [6], the “% max blockade relative to no mAb, IL-6, assay #2, donor 1” value is 88.9% and the “% max blockade relative to no mAb, IL-6, assay #2, donor 2” value is 89.2%. Besides, in assay [1], the “IC50, NFkB-luc Ramos, 500 pM hCD40L” value was 6.93e-11 M; the “Max % activation, NFkB-luc Ramos, no ligand” value came out at 6%; the “Max % inhibition, NFkB-luc Ramos” value worked out at 91%. Moreover, in assay [2], the “IC50, NFkB-luc THP-1, 10 nM hCD40L” value was 0.553 nM; the “Max % activation, NFkB-luc THP-1, no ligand” value came out at 1%; the “Max % inhibition … 10 nM hCD40L” value turned out to be 98%. The “% Blocking at highest mAb concentration” value in assay [3] is 98%. Besides, in [7], the “% max blockade relative to no mAb, IL-6, B cells, donor 1” value was 84.5%; the “% max blockade relative to no mAb, IL-6, B cells, donor 2” value is 92%; the “% max blockade relative to no mAb, IL-6, B cells, donor 3” value was 92%. Also, in assay [8], the “% max blockade relative to no mAb, IL-10, assay #2, donor 1” value stood at 87.7% and the “% max blockade relative to no mAb, IL-10, assay #2, donor 2” value is 89.9%. For the same molecule, in assay [4], the “IC50, NFkB-luc Raji, 900 pM hCD40L” value turned out to be 5.76e-11 M; the “Max % activation, NFkB-luc Raji, no ligand” value is 13%; the “Max % inhibition, NFkB-luc Raji” value worked out at 113%. In [9], the “% max blockade relative to no mAb, TNFa, B cells, donor 1” value amounted to 44%; the “% max blockade relative to no mAb, TNFa, B cells, donor 2” value was determined as 63.5%; the “% max blockade relative to no mAb, TNFa, B cells, donor 3” value is 68.5%. In assay [10], the “% max blockade relative to no mAb, IL-10, B cells, donor 1” value amounted to 74.2%; the “% max blockade relative to no mAb, IL-10, B cells, donor 2” value amounted to 91.4%; the “% max blockade relative to no mAb, IL-10, B cells, donor 3” value came to 92.4%.

B5: REGN20484 (bispecific antibody, human IgG4 S228P, kappa)
heavy 1: EVQLVESGGGLVQPGGSLRLSCAASGFTFGSYGMAWVRQAPGKGLEWVSAISGSGDYTNYADSVKRRFTISRDNSKNTLYLQMSSLRAEDTAVYYCAKEKTGTTGYLYSGMDVWGQGTTVTVSSASTKGPSVFPLAPCSRSTSESTAALGCLVKDYFPEPVTVSWNSGALTSGVHTFPAVLQSSGLYSLSSVVTVPSSSLGTKTYTCNVDHKPSNTKVDKRVESKYGPPCPPCPAPGGGGPSVFLFPPKPKDTLMISRTPEVTCVVVDVSQEDPEVQFNWYVDGVEVHNAKTKPREEQFNSTYRVVSVLTVLHQDWLNGKEYKCKVSNKGLPSSIEKTISKAKGQPREPQVYTLPPSQEEMTKNQVSLTCLVKGFYPSDIAVEWESNGQPENNYKTTPPVLDSDGSFFLYSRLTVDKSRWQEGNVFSCSVMHEALHNHYTQKSLSLSLGK
heavy 2: EVQLVESGGGLVQPGGSLRLSCAASGFTFSSYAMNWVRQAPGKGLEWVSIISGTIGKTYYADSVKGRFTISRDNSKNTLYLQMNSLRGEDTAVYYCAKDTERDITGSPFDYWGQGTLVTVSSASTKGPSVFPLAPCSRSTSESTAALGCLVKDYFPEPVTVSWNSGALTSGVHTFPAVLQSSGLYSLSSVVTVPSSSLGTKTYTCNVDHKPSNTKVDKRVESKYGPPCPPCPAPGGGGPSVFLFPPKPKDTLMISRTPEVTCVVVDVSQEDPEVQFNWYVDGVEVHNAKTKPREEQFNSTYRVVSVLTVLHQDWLNGKEYKCKVSNKGLPSSIEKTISKAKGQPREPQVYTLPPSQEEMTKNQVSLTCLVKGFYPSDIAVEWESNGQPENNYKTTPPVLDSDGSFFLYSRLTVDKSRWQEGNVFSCSVMHEALHNRFTQKSLSLSPGK
light: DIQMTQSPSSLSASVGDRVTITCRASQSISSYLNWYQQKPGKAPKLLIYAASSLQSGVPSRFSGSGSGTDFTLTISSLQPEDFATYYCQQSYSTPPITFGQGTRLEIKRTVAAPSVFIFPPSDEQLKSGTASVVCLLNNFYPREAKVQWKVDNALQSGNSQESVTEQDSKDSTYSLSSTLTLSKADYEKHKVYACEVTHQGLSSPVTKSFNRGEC
B5: in [5], the “% max blockade relative to no mAb, TNFa, assay #2, donor 1” value is 61.9% and the “% max blockade relative to no mAb, TNFa, assay #2, donor 2” value was 52.3%. Moreover, in assay [6], the “% max blockade relative to no mAb, IL-6, assay #2, donor 1” value is 89% and the “% max blockade relative to no mAb, IL-6, assay #2, donor 2” value stood at 88.1%. In assay [8], the “% max blockade relative to no mAb, IL-10, assay #2, donor 1” value amounted to 87.1% and the “% max blockade relative to no mAb, IL-10, assay #2, donor 2” value stood at 90.9%.
